Assay: soluble on expression in E. coli; label from the status in PepcDB or PDB records

GSATASDSTRRVSVRDKLLVKEVAELEANLPCTCKVHFPDPNKLHCFQLTVTPDEGYYQGGKFQFETEVPDAYNMVPPKVKCLTKIWHPNITETGEICLSLLREHSIDGTGWAPTRTLKDVVWGLNSLFTDLLNFDDPLNIEAAEHHLRDKEDFRNKVDDYIKRYAR
soluble on expression in E. coli: soluble

MMKEVLDAFRKSGEAEGFGHNKMSSSEVASHYNKVLQVGIEGRKESRIFFMRNMNNWVKSQLINDAKQRVNDNGVNNPRVLDLACGKGGDLKKWDIAGAKDVVMADVADVSIQQAEERYKQMFGYKKNNIFTVQFIVADCTKENLEDRIENKDPFDLVSCQFALHYSFVDEASARIFLKNAVGMLKPGGVFIGTLPDADRIVWSMRNGENGQFANEVCKITYENVEELAEGKVPLFGAKFHFSLDEQVNCPEFLAYFPLVKHLLEELDMELLFVHNFAEAINKWLEPGRRLLESMTGLETYPNEKLSGKSDDEYLEAKAKLDAFPEDERIKTMGTLSKSEWEAICMYLVFGFRKKKSEAEKTEEEPATTKPVAESESEQKEVTESEEKEDQEDCEHQEAQTN
soluble on expression in E. coli: soluble

MSLIELWPAIDLIGSTSVRLTEGKYDSEEKMSRSAEESIAYYSQFECVNRIHIVDLIGAKAQYAREFDYIKSLRRLTTKDIEVGGGIRTKSQIMDYFAAGINYCIVGTKGIQDTDWLKEMAHTFPGRIYLSVDAYGEDIKVNGWEEDTELNLFSFVRQLSDIPLGGIIYTDIAKDGKMSGPNFELTGQLVKATTIPVIASGGIRHQQDIQRLASLNVHAAIIGKAAHQASFWEGLEEGHHHHHH
soluble on expression in E. coli: soluble

MNQGERNAVSLLKDKLFNEEGKPVNLIFCYTILQMKVAERIMAQHPGERFYVVLMSENRNEKYDYYFNQIKDKAERAYFFYLPYGLNKSFNFIPTMAELKVKSMLLPKVKRIYLASLEKVSIAAFLSTYPDAEIKTFDDGTNNLIRESSYLGGEFAVNGAIKRNFARMMVGDWSIAKTRNASDEHYTIFKGLKNIMDDGRRKMTYLPLFDASELKAGDETGGTVRILLGSPDKEMKEISEKAAKNFNIQYVAPHPRQTYGLSGVTALNSPYVIEDYILREIKKNPHTRYEIYTFFSGAALTMKDFPNVHVYALKPASLPEDYWLKPVYALFRQADIPILAFDDKLEHHHHHH
soluble on expression in E. coli: not soluble

MSLNRFFNRELSWLAFNTRVLNEAKDESLPLLERLKFLAIYDTNLDEFYMIRVAGLKQLYEHKIASKGIDGASPEEQLEKIKHYLAHEIEERELEFQKIQALLFKKGLCITPYNELNLEQKAKAKTYFKEQLYALVLPFKLDSSHTFPPLANLTFALFARIKDKETQIISYALIKLPSFIFRFVELEKGLFVLAEEIVEAHLEELFLEHEILDCMAFRVTCDADIAITEDEAHDYADLMSKSLRKRNQGEIVRLQTQKGSQELLKTLLASLRSFQTHSYKKHKLTGMHIYKSAIMLNLGDLWELVNHSDFKALKSPNFTPKIHPHFNENDLFKSIEKQDLLLFHPYESFEPVIDLIEQAASDPATLSIKMTLYRVGKHSPIVKALIEAASKIQVSVLVELKARFDEESNLHWAKALERAGALVVYGVFKLKVHAKMLLITKKTDNQLRHFTHLSTGNYNPLSAKVYTDVSFFSAKNEIANDIIKLFHSLLTSSATNSALETLFMAPKQIKPKIIELIQNEMNHQQEGYIILKANALVDSEIIEWLYQASQKGVKIDLIIRGICCLKPQVKGLSENIRVYSIVGKYLEHARIYYFKHENIYFSSADLMPRNLERRVELLIPATNPKIAHKLLHILEIQLKDTLKRYELNSKGRYIKVSNPNDPLNSQDYFEKQALKTFEGHHHHHH
soluble on expression in E. coli: soluble

MDPTEMRYLEEENGAMMKTFKDAVTGFATGKTSLVFIGVEQLVQNFRAKRDFFNGAHITMTKVARTHY
soluble on expression in E. coli: soluble

MKPSQWTLRWVTLCGCGMLAASAAAVELPGTVQPSQLDERFKPRSEPQAKPEAPLVVPKQVAPQGSEQIRFKLREIRIEGNTRYDKAVLESYYQHMLGEQVSLAELVDLANRLTAKYRQDGFLLTQVVVPEQSIEGGKVRLQVIEGYLEHVQIKGTVDGPRVRVEELLAPLTEKRPLDADTLERGLLLVGDLPGVNVQSVLSPGQALGSSNLDVALQQQRYEGFVSLDNRGSHYTDPTTLAFGATEFSRLGFYEQIDVLGAISPFSDATRYIQLRGTLPLGGMFAGDTLQIMGSYSKVNPDIPDSVFPFDSVSKSTEGSISYNHPFIRSRSQNLSGGLALQWKDTETRLRDFASDASNPGRDHVRVFQQRLTYDWVDRWMGINLAEVRNNIGLDMWGATKKDDERRSREVADGRFVYLNGNIGRLQGLGGPWSVYGELQWQYSFDPLLPSERFGVGGSGIGRGFAPGNITGDRGFALKLEPRYGQAVGYSWLRSYQAYAFYDWGKTYNLDVDDDEQQKLGSIGAGVRFNLTDQLSFNPEIARQVIGEPADQRDGKRETRVLFNVVARF
soluble on expression in E. coli: not soluble

MPKVISQKEFNILSRTKERVNFQIVYTKQRNGLHKAAKEYFFKDKDFTIIEDTPDTPDQPDGPCITKGPKEPGGPEEPNGPDKPEDPKDPDTPDVSEGPKEQGGQKDPGGPDDPSEGKQKVSKPDKYVTHRELDEKLKDFATKADFKRVEDKVDVLFELQKTQGEQIKVQGEQIKAQGKQIEQLTETVKVQGEQIRAQGEQIKAQSEEIKEIKVEQKAQGEQIKELQVEQKAQGKTLQLILKTLEKMNERLEKLESKLEHHHHHH
soluble on expression in E. coli: not soluble

MEINSREVYVFTPKGDVMSLPQGATPVDFAYAVHTEVGHRCIGARVNGKLVTLDTKLNNGDVIDILTSNAPDAGPSRLEHHHHHH
soluble on expression in E. coli: not soluble

SADIYIMGHRYPDMDALGSAFGVARLASFNNRKAWIVLDENEIIPDVKRVLEAIKEYPELEERIISPKEAMKRKKESSLLVMVDYHKPSLSISQELYERFDKVVIIDHHRRGDEFPAKPLLSYIESSASSASELVTELIEYQSNSANKLQAFEATMMLAGIVVDTKSFNTRTTARTFDVASYLRTCGADSSLVQYLLSSDL
soluble on expression in E. coli: not soluble

MATDTTVQLRAGWQGRFYEDFAVGDVYKHPYGRTVTETDNVWFTNLTMNANPMHFNAAYASGTEFDERLVNGLFVIALSVGMSVVDVSANATANLGYDDIQHHAPVFHGDTLFAESEVLSKRESESRPHVGMVTTELRTYTQDGELVLSLERTPMVRKRGAADPLEHHHHHH
soluble on expression in E. coli: not soluble

MSLESPELKALVDAGKLPAVEKRLPKEPLVLTPLESVGTYGGTWRTATFGGGDSEIERSIGYTRLVRWNPEWTEVIPDIAKSVEVNDNATEYTFTLREGTRWSDGEPFTADDLVWWNENVLRNTKITPAAPNWLTAGGETVKVEKLADDKVIFKFAAPNGLFLMNMATVRGSDILAAAPAHYLKQFHKDFNPDGIDALVKAAGATDWVQLFNNKIGFPGRWRDLGRPTLDAWVLTAPYNGTTQVVGERNPYYAKVDTAGNQLPYFDRITIDVMQDTQAIILKAISGEIDMQNRFIETTDARTVIVQNQEKGGYGLFIARPAWSNALLITLNQTHKNPALRAVFSNKDFRIGLSYAINREELNQLIYAGQAKPYQAAPREGTALYDEKMATQYLEYNVDLANQYLDKAGLTKHDAEGYRLGQDGKRITFAIDALTGSPIQVDALEMIQRYWRAVGIDMQPRPAERSLIFSRLQNNENDGLGWVGGGGYDFLGLLDPKWYFPHEYESSFATAWGLYYQNPKDPNAQEPSPAAKKQMDLYRQVQEAPTLEKQLAAMKELLAITRDEFYVIGTNLEPDRVGIVKTNMRNVPKVIPSTSFYMTPGPAKPETFYYQQEGHHHHHH
soluble on expression in E. coli: soluble

MGSSHHHHHHGGTGENLYFQGGSGTAPPGSPAFCPPPAQYQYAYVPAASYVAASSCVGRGNNGGPLPYPLQPEAAPGYGEEQTSLLWNTRLFGLSTDVPSAMDSVMCIYCISSTHFNYLYRQQRGMFDPITAALLCFDVFWCMQLWPVVTPLSSITLHTLITRRELRKRYGLVGNDLFVKMDRLNADTAAATEAGETGAQAEEATTAEVESQPHRARDSDVTAEAAAAEPAGTGEAAAEVISVTPPATAPSEAAAPRTGESDVMAHTPRRVCHGLRS
soluble on expression in E. coli: not soluble

MSLRASVAATKQKRFVAVDIETTGLNTESDQILSIGAVKHDGIEFYRLIKQDIDVPKQIVELTGITSEMLSKEGVPLQDALEELTDFVGNVPIVGYNFRFDSVFLNRDYRKCGMQELKNEIKDLLPVVKRREKFLDNYKLQTVLSNYGIENKVPHNAVSDARATKELAMKLIKNRILVIEGHHHHHH
soluble on expression in E. coli: soluble

MSLQIHALFPTAVATAQLRLDPLEMAAQLQTLLMLRGADEGNPNSGCAWTGDLNGVWQLHRHPDFSGMTDRVVEQAWAYLSAVGFDQAKLALHVQRCWPVLSDWDQMVGRHHHPNAHLSAVLYLSGSGSGEDGVLRIHAPSQPNELVPGSAAGHGGPIAAGHPLNQPHWDLAPQPGLLVLFPSRLDHSVLANGDPELLRCSISFDFVLTAPVDGDPPEYLAPHPSLWTPQPLEVNEGHHHHHH
soluble on expression in E. coli: soluble

MGSLGPKVFKLDQLPGTIGKKAAKGASVKFSESSTQAVIKATYLQVFGRDVYEGQRLKVQEIKLENGEISVRDFVRALAKSDLFRKLYWTPFYVCKAIEYIHRRLLGRPTYGRQENNKYFDIASKKGLYAVVDAILDSLEYTETFGEDTVPYERYLEHHHHHH
soluble on expression in E. coli: soluble

MGSDKIHHHHHHMTTVNETTSQAGLALAQAGSNSAAQGIQDQFLTLLVTQLRNQDPLNPMENAELTSQLAQISTVEGINNLKNTMLAISGQIDVSQSMDAVSMIGKGVLMPGDKVSLGADPNDPAQRGATPFGIDLQGDATKVTVKVLDPSGAVVRTMELGDLKTGVHTLQWDGNNDGGQPLADGKYSITVSASDADANPVKTEALTYGQVKSVAYSTNGLRLDLGLAGQISMLDVRKVIGASGSA
soluble on expression in E. coli: not soluble

MKKKSVWIKADEGGWEEQKERITTGLESGADCVLVNPGDVEKVRELGNITVAAFARDNKSGADIVVVGKRGEGDGTKPLPQEIPGSFDVNAATLLTDKGVTVGGYVVIKDRSYERFAAEMGKICDYLLVTGTDWKVIPLENLIADLQREKVKIIFGVKSAEEARLAFQTLETGADGVLLDSGNPQEIKDTIKAARELESESTELESAVVTRVEPLGMGDRVCVDTCNLMQRGEGMLIGSQASGMFLVNSESDDSPYVAARPFRVNAGAVHSYIKIGDKTRYLSELQAGDSVTIIDSRGKQREGIVGRIKIESRPLMLIEAKAGDRTLTAILQNAETIKLVGKGGTPISVAKLKKGDEVLVRLEEGARHFGKKIEETIIEKLEHHHHHH
soluble on expression in E. coli: soluble

GMSNALATLASPADDIAFYEERLRAAMLTGDLKGLETLLADDLAFVDHTGCVKTKQTHLEPYRAGLLKLSRLDLSDAVVRAAGEDGRVVVVRAVTAGVYDGEAFTETLRFTRIWRRTQGPAGWKLVAGHCSVIL
soluble on expression in E. coli: soluble

MSLKTVEDNRTSLTDQVLKGTLIQDKLYESNKYYPIYGSSELGKDDPFNPAIALNKHNANKKAFLLGAGGSTDLINAIELASQYDKLKGKKLTFIISPQWFTNHGLTNQNFDARMSQTQINQMFQQKNMSTELKRRYAQRLLQFPHVHNKEYLKSYAKNPKETKDSYISGFKENQLIKIEAIKSLFAMDKSPLEHVKPATKPDASWDEMKQKAVEIGKADTTSNKFGIRDQYWKLIQESKRKVRRDYEFNVNSPEFQDLELLVKTMRAAGADVQYVSIPSNGVWYDHIGIDKERRQAVYKKIHSTVVDNGGKIYDMTDKDYEKYVISDAVHIGWKGWVYMDEQIAKHMKGEPQPEVDKPKNEGHHHHHH
soluble on expression in E. coli: soluble

GPGSMPSPFQQTLLARAYHYVHPKTGRPIRQFRRYGDPRYINNEAALIRGQWGLITADFGMVTQSQMENARLAILRRLPRGSFTLTMHTDYEEFPVVKKSPESRMGAGKANIHHFAFKFTTGVPLFEIMPISARRLNQAEAEGIFLAGRPFIPLQTVVVPQGRVDEYHVFK
soluble on expression in E. coli: not soluble

Reference: the DeepSol protein solubility set
